# Source: IntAct's records for PubMed 20125124
# B1: Serine protease HTRA2, mitochondrial (Homo sapiens), O43464 (parent)
# chain: MAAPRAGRGAGWSLRAWRALGGIRWGRRPRLTPDLRALLTSGTSDPRARVTYGTPSLWARLSVGVTEPRACLTSGTPGPRAQLTAVTPDTRTREASENSGTRSRAWLAVALGAGGAVLLLLWGGGRGPPAVLAAVPSPPPASPRSQYNFIADVVEKTAPAVVYIEILDRHPFLGREVPISNGSGFVVAADGLIVTNAHVVADRRRVRVRLLSGDTYEAVVTAVDPVADIATLRIQTKEPLPTLPLGRSADVRQGEFVVAMGSPFALQNTITSGIVSSAQRPARDLGLPQTNVEYIQTDAAIDFGNSGGPLVNLDGEVIGVNTMKVTAGISFAIPSDRLREFLHRGEKKNSSSGISGSQRRYIGVMMLTLSPSILAELQLREPSFPDVQHGVLIHKVILGSPAHRAGLRPGDVILAIGEQMVQNAEDVYEAVRTQSQLAVQIRRGRETLTLYVTPEVTE
# partner: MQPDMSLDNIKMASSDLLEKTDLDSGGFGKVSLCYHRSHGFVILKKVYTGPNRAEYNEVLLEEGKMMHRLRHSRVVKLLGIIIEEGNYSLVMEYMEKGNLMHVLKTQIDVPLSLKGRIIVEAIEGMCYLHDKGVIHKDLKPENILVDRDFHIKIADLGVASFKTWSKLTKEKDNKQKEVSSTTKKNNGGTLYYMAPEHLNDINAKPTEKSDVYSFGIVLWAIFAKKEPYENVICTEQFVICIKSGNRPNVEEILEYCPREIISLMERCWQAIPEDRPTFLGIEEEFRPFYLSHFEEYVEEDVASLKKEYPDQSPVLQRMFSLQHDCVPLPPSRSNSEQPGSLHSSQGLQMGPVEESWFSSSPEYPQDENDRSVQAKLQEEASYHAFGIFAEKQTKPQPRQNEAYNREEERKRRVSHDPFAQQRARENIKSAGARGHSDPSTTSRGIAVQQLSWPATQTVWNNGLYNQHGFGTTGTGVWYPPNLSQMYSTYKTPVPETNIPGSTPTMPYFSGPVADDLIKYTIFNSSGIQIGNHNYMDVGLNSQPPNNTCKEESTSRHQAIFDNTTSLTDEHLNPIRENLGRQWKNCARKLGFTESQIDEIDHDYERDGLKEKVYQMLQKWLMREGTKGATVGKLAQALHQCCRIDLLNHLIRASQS
# Variants of: B1
# Conditions: with ripk1_mouse Ripk1, Q60855
row,Variant,effect of a mutation on the interaction
1,MAAPRAGRGAGWSLRAWRALGGIRWGRRPRLTPDLRALLTSGTSDPRARVTYGTPSLWARLSVGVTEPRACLTSGTPGPRAQLTAVTPDTRTREASENSGTRSRAWLAVALGAGGAVLLLLWGGGRGPPAVLAAVPSPPPASPRSQYNFIADVVEKTAPAVVYIEILDRHPFLGREVPISNGSGFVVAADGLIVTNAHVVADRRRVRVRLLSGDTYEAVVTAVDPVADIATLRIQTKEPLPTLPLGRSADVRQGEFVVAMGSPFALQNTITSGIVSSAQRPARDLGLPQTNVEYIQTDAAIDFGNAGGPLVNLDGEVIGVNTMKVTAGISFAIPSDRLREFLHRGEKKNSSSGISGSQRRYIGVMMLTLSPSILAELQLREPSFPDVQHGVLIHKVILGSPAHRAGLRPGDVILAIGEQMVQNAEDVYEAVRTQSQLAVQIRRGRETLTLYVTPEVTE [S306A],disrupting interaction
